Assay results reported in patent US20180221438A1, “MODULATING URACIL-DNA GLYCOSYLASE AND USES THEREOF” (Adaerata Limited Partnership, priority 2015, published 2018).

Tests used:
DLBCL cells = assay: Metaphases with STL in DLBCL lines; format: cell-based, human; conditions: DLBCL lines expressing GFP or Ugi, and AID or shAID
Experimental: For metaphase analysis cells were incubated with 50 ng/ml colcemide in cell culture media for 3 hours, harvested by trypsinization, incubated for 10 min at RT in 75 mM KCl, and fixed in freshly prepared methanol:glacial acetic acid (3:1 v/v). Cells were stored at 4° C. and when needed dropped onto wet slides and air-dried. For FISH analysis of the metaphases the cells were pre-treated with 0.05% w/v pepsin in 10 mM HCl during 10 minutes at 37° C. After washes with 1X PBS, cells were fixed with 1% formaldehyde in 1X PBS during 10 minutes at RT, washed again with 1X PBS and dehydrated with ethanol series (70-90-100%, 2 min each at RT) and air-dried ON. Then, cells were denatured with hybridization solution (70% deionized formamide; 2.5% 50× Denhardt solution; 10 mM Tris pH 7.5; 1.5 mM MgCl2) containing Alexa488-conjugated PNA probe (Alexa488-OO-(CCCTAA)3) 2 min at 80° C. on a heat block. After 4 hours incubation at RT in the dark, the samples were washed twice with wash solution (70% deionized formamide and 10 mM Tris-HCl [pH 7.2]) at RT and then twice with PBS. For DAPI staining of DNA, slides with metaphase spreads were incubated 10 min in 0.5 ? g/ml 4′, 6-diamino-2-phenylindole (DAPI) (Sigma) in PBS, washed with PBS for 2 min, and mounted in SlowFade™ Gold antifade mounting reagent (Life Technologies). Finally, the samples were analyzed as described above. […]

CH12F3 cells [1] = assay: FISH of metaphase chromosomes for sister telomere loss (STL) in CH12F3 cells; format: cell-based, mouse
Experimental: (§1) B cell lymphoma cells, CH12F3-2 cells, were cultured in RPMI medium supplemented with 10% FBS, 0.05% 2- mercaptoethanol and 5% NCTC 109 (Sigma). CH12F3-2 cells stably expressing Ugi were obtained by retroviral delivery using pMIG vector as described before ^39. Class switching induction to IgA in CH12F3-2 cells was performed as previously published ^39. CSR to IgA in CH12F3-2 cells was determined with an Accuri C6™ Flow Cytometer (BD Biosciences). Mouse B cells were purified from freshly isolated splenocytes using anti-CD43 magnetic beads as described ^70. CSR was induced using 5 ? g/ml LPS (Sigma) and 20 ng/ml IL-4 (Preprotech). Cells were harvested for ChIP or metaphase spreads and FISH at 24 h post stimulation.
For metaphase analysis cells were incubated with 50 ng/ml colcemide in cell culture media for 3 hours, harvested by trypsinization, incubated for 10 min at RT in 75 mM KCl, and fixed in freshly prepared methanol:glacial acetic acid (3:1 v/v). Cells were stored at 4° C. and when needed dropped onto wet slides and air-dried. For FISH analysis of the metaphases the cells were pre-treated with 0.05% w/v pepsin in 10 mM HCl during 10 minutes at 37° C. […] Finally, the samples were analyzed as described above. […]

CH12F3 cells [2] = assay: Proliferation of CH12F3 cells after CSR stimulation (cell number, CFSE dilution); format: cell-based, mouse; conditions: CH12F3 Ugi cells stimulated for CSR; prevented by AID knockdown
Experimental: as §1

UNG = biological target: T1, UNG (Mus musculus, UniProt P97931); assay: UNG activity assay with CH12F3 cell extracts; format: biochemical; conditions: CH12F3 Ugi cell extracts
T1 construct: endogenous in cells; host or cells: CH12F3 (CH12F3-2) mouse B lymphoma cells, with or without retrovirally expressed Ugi and shRNAs; sonicated whole-cell extract
Experimental: UNG activity assay was performed as previously described ^69 with minor modifications. Briefly, exponentially growing cells were washed in 1X PBS buffer, resuspended in HED buffer (25 mM Hepes, 5 mM EDTA, 1 mM dithiothreitol and 10% glycerol at pH 7.8) with complete protease inhibitors (Roche) and lysed by sonication (five pulses of 30 seconds) in a Bioruptor™ (Diagenode). After centrifugation at 14,000 rcf for 20 min at 4° C., the supernatant was frozen in aliquots into liquid nitrogen and stored at […]. UNG assays were carried out in HED buffer by mixing 10 μg of cell extract with 1 pmol of fluorescein-labeled oligonucleotide substrate in a final volume of 10 μl for 3 hours at 37° C. The double-stranded oligonucleotide with a single dU/dG mismatch was made by annealing 5′-[…](SEQ ID NO: 45)-fluorescein (FITC) to the complementary oligonucleotide, 5′-[…]-3′(SEQ ID NO: 46). The reaction was terminated by the addition of 10 UI of formamide loading dye and the products were resolved on 15% TBE-urea polyacrylamide gels. The apyrimidinic endonuclease (APE) activity present in the extracts was sufficient to cleave all the abasic substrate generated by UNG during the reaction. The FITC signal of the reaction products was visualized using a Typhoon Phosphorlmager™ (GE Healthcare).

T1 sequence (P97931 whole entry): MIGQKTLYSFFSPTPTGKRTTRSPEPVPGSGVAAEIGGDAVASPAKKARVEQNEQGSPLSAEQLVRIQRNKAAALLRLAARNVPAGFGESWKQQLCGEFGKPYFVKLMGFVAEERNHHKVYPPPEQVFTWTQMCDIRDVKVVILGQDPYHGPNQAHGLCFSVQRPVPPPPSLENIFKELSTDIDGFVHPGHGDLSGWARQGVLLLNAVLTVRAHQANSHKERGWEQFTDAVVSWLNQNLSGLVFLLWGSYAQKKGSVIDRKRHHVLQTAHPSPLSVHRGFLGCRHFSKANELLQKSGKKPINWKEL

B1: Ugi: Uracil Glycosylase Inhibitor of Bacillus subtilis bacteriophage PBS1/PBS2, small protein (9.5 kDa), SEQ ID NO: 29; expressed in cells by retroviral delivery (protein)
chain: MTNLSDIIEKETGKQLVIQESILMLPEEVEEVIGNKPESDILVHTAYDESTDENVMLLTSDAPEYKPWALVIQDSNGENKIKML
modifications: bacillus subtilis
notes: expressed in cells by retroviral delivery
number of metaphases with STL (DLBCL cells): significant increase in the number of metaphases with STL only when DLBCL cells expressed AID and Ugi but not with Ugi alone | STL (CH12F3 cells [1]; CH12F3 Ugi cells expressing human AID, without inducing class switching, vs CH12F3 GFP): significant increase in STL | metaphase chromosomes with STL (CH12F3 cells [1]; activated CH12F3 cells expressing Ugi vs CH12F3 cells expressing GFP alone): significant increase in metaphase chromosomes with STL | growth (total cell number or CFSE dilution assay) (CH12F3 cells [2]): reduced growth | UNG activity (UNG): lacked UNG activity
